According to article PMC6771245, “CMKLR1-targeting peptide tracers for PET/MR imaging of breast cancer” (Theranostics, 2019):
*1 amine or outer side, *2 acyl side, *3 side chain or, on linkers, in order; H or OH if unused. Where a SMILES comes first, the peptide text is derived from it. [ ]: non-standard residue; d: D form. The star is where a group is joined. DOTA = O=C(O)CN1CCN(CC(=O)O)CCN(CC(=O)*)CCN(CC(=O)O)CC1; NH(CH2)9CO = O=C(CCCCCCCCCN[*:1])[*:2]; Hyp = O=C(O)[C@@H]1C[C@@H](O)CN1; Tic = O=C(O)[C@@H]1Cc2ccccc2CN1; Cha = N[C@@H](CC1CCCCC1)C(=O)O; Cit = NC(=O)NCCC[C@H](N)C(=O)O; Ahx = NCCCCCC(=O)O

What was measured:
[1] = tested on: DU4475/A549 xenograft model; test: in vivo; settings: mouse
Source text: (§1) For in vivo experiments, at least 8-week-old female athymic NMRI-Foxn1^nu /Foxn1^nu mice (Janvier Labs, Saint-Berthevin, France) were used. Animal care followed institutional guidelines and all experiments were approved by local animal research authorities. For the generation of tumor xenografts, 5 x 10^6 cells of both DU4475 and A549 cells were inoculated subcutaneously into the right and left shoulder, respectively (1:1 phosphate-buffered saline [PBS]/Matrigel Basement Membrane Matrix High Concentration, Corning, Corning, USA). Part of the animals received SW13 lung cancer cells as a CMKLR1-negative control tumor. For the analysis of biodistribution, only data of […] and A549 xenograft tumors are used. Tumors were allowed to grow for two to four weeks (tumor volume > 100 mm^3) after cell inoculation.
(§2) Radiolabeling experiments were performed on a Modular Lab PharmTracer synthesis module (Eckert & Ziegler, Berlin, Germany) which allows fully automated cassette-based labeling of gallium tracers utilizing a pharmaceutical grade ^68Ge/^68Ga generator (GalliaPharm, 1.85 GBq, good manufacturing practice [GMP]-certified; Eckert & Ziegler GmbH, Berlin, Germany). Cassettes were GMP-certified and sterile. They were used without pre-conditioning of the cartridges. The gallium generator was eluted with aqueous HCl (0.1 M, 7 mL) and the eluate was purified on an ion-exchange cartridge followed by elution using 1 mL of 0.1 M HCl in acetone. The peptide-DOTA conjugate (50 µg from a stock solution 1 mg/mL in 10% dimethyl sulfoxide [DMSO] in water) was mixed with 500 µL 0.1 M HEPES buffer (pH 7) and heated for 500 seconds at 95 °C. After the reaction, the mixture was passed through a C-18 cartridge for purification and the tracer was eluted from the cartridge with ethanol. In order to control the quality of radiolabeling, the radiochemical yield, purity, and specific activity for all five peptide-DOTA conjugates and each individual labeling experiment was determined. Overall, a radiochemical yield of 82.1% ± 6.7%, a radiochemical purity of 98.1 ± 4.6% and a molar activity of 8.6 GBq/µmol ± 2.7 GBq/µmol was achieved (Table S1). Before animal injection, the activity was equilibrated to neutral pH using 1 M sodium hydrogen carbonate. It was further diluted with saline to ≤ 10% ethanol.
(§3) Tumor-bearing mice were injected with approximately 10 MBq of ^68Ga-labeled DOTA-peptide or 1 MBq of ^177Lu-labeled DOTA-peptide to the tail vein via a catheter. Mice were sacrificed and dissected one or two hours after injection. Tumor, blood, stomach, pancreas, small intestine, colon, liver, spleen, kidney, heart, lung, muscle and femur samples were weighed and uptake of radioactivity was measured by a gamma counter. To determine the effect of unlabeled ligand on the tumor uptake, 200 nmol CG34 peptide (100-fold excess) was co-injected.

in vivo = settings: female, mouse, iv, 10 MBq, total radioactivity
Source text: as §1, §2, §3

[2] = athymic NMRI-Foxn1^nu/Foxn1^nu, A549 tumor uptake
[3] = athymic NMRI-Foxn1^nu/Foxn1^nu, DU4475 tumor uptake
[4] = athymic NMRI-Foxn1^nu/Foxn1^nu, blood uptake
[5] = athymic NMRI-Foxn1^nu/Foxn1^nu, heart uptake
[6] = athymic NMRI-Foxn1^nu/Foxn1^nu, kidney uptake
[7] = athymic NMRI-Foxn1^nu/Foxn1^nu, liver uptake
[8] = athymic NMRI-Foxn1^nu/Foxn1^nu, lung uptake
[9] = athymic NMRI-Foxn1^nu/Foxn1^nu, muscle uptake
[10] = athymic NMRI-Foxn1^nu/Foxn1^nu, spleen uptake
[11] = athymic NMRI-Foxn1nu/Foxn1nu, colon uptake
[12] = athymic NMRI-Foxn1nu/Foxn1nu, femur uptake
[13] = athymic NMRI-Foxn1nu/Foxn1nu, muscle uptake
[14] = athymic NMRI-Foxn1nu/Foxn1nu, pancreas uptake
[15] = athymic NMRI-Foxn1nu/Foxn1nu, small intestine uptake
[16] = athymic NMRI-Foxn1nu/Foxn1nu, spleen uptake
[17] = athymic NMRI-Foxn1nu/Foxn1nu, stomach uptake
[18] = athymic NMRI-Foxn1nu/Foxn1nu, tumor-to-blood ratio
[19] = athymic NMRI-Foxn1nu/Foxn1nu, tumor-to-kidney ratio
[20] = athymic NMRI-Foxn1nu/Foxn1nu, tumor-to-liver ratio
[21] = athymic NMRI-Foxn1nu/Foxn1nu, tumor-to-muscle ratio
[22] = athymic NMRI-Foxn1nu/Foxn1nu, tumor-to-pancreas ratio

Compound | DU4475 tumor uptake after two hours as % of the 1 h-value [1] | higher uptake in CMKLR1-positive DU4475 tumors than in target-negative A549 tumors [1] [fold] | tissue uptake at 1 h (in vivo; [2]) [%ID/g] | tissue uptake at 1 h (in vivo; [3]) [%ID/g] | tissue uptake at 2 h (in vivo; [3]) [%ID/g] | tissue uptake at 1 h (in vivo; [4]) [%ID/g] | tissue uptake at 2 h (in vivo; [4]) [%ID/g] | tissue uptake at 1 h (in vivo; [5]) [%ID/g] | tissue uptake at 2 h (in vivo; [5]) [%ID/g] | tissue uptake at 1 h (in vivo; [6]) [%ID/g] | tissue uptake at 2 h (in vivo; [6]) [%ID/g] | tissue uptake at 1 h (in vivo; [7]) [%ID/g] | tissue uptake at 2 h (in vivo; [7]) [%ID/g] | tissue uptake at 1 h (in vivo; [8]) [%ID/g] | tissue uptake at 2 h (in vivo; [8]) [%ID/g] | tissue uptake at 1 h (in vivo; [9]) [%ID/g] | tissue uptake at 1 h (in vivo; [10]) [%ID/g] | tissue uptake at 1 h (in vivo; [11]) [%ID/g] | tissue uptake at 2 h (in vivo; [11]) [%ID/g] | tissue uptake at 1 h (in vivo; [12]) [%ID/g] | also measured
C[C@@H](NC(=O)[C@H](Cc1ccccc1)NC(=O)[C@H](CCCNC(N)=O)NC(=O)CNC(=O)[C@@H]1C[C@@H](O)CN1C(=O)[C@H](CC1CCCCC1)NC(=O)[C@H](Cc1ccc(O)cc1)NC(=O)CCCCCCCCCNC(=O)CN1CCN(CC(=O)O)CCN(CC(=O)O)CCN(CC(=O)O)CC1)C(=O)N1Cc2ccccc2C[C@H]1C(=O)N[C@@H](CO)C(=O)O [[^68Ga]Ga-DOTA-ADX-CG34, metal not drawn] ({DOTA}-[NH(CH2)9CO]Y[Cha][Hyp]G[Cit]F[dA][Tic]S-OH) | approx. 68% | 2.3 | 2.7 | 6.2 | 4.2 | 2.8 | 0.8 | 2.2 | 1.2 | 10.3 | 5.5 | 14.2 | 12.5 | 7.1 | 3.9 | 1.1 | 7.8 | 3.2 | 2.3 | 1.3 | tissue uptake at 2 h (in vivo; [12]): 0.7 %ID/g; tissue uptake at 2 h (in vivo; [13]): 0.6 %ID/g; tissue uptake at 1 h (in vivo; [14]): 1.7 %ID/g; tissue uptake at 2 h (in vivo; [14]): 1.1 %ID/g; tissue uptake at 1 h (in vivo; [15]): 3.8 %ID/g; tissue uptake at 2 h (in vivo; [15]): 4.4 %ID/g; tissue uptake at 2 h (in vivo; [16]): 5.4 %ID/g; tissue uptake at 1 h (in vivo; [17]): 2.2 %ID/g; tissue uptake at 2 h (in vivo; [17]): 1.5 %ID/g; tissue to tissue ratio at 1 h (in vivo; [18]): 3; tissue to tissue ratio at 2 h (in vivo; [18]): 5.7; tissue to tissue ratio at 1 h (in vivo; [19]): 0.8; tissue to tissue ratio at 2 h (in vivo; [19]): 0.8; tissue to tissue ratio at 1 h (in vivo; [20]): 0.4; tissue to tissue ratio at 2 h (in vivo; [20]): 0.3; tissue to tissue ratio at 1 h (in vivo; [21]): 6.3; tissue to tissue ratio at 2 h (in vivo; [21]): 7.2; tissue to tissue ratio at 1 h (in vivo; [22]): 3.9; tissue to tissue ratio at 2 h (in vivo; [22]): 3.9
C[C@@H](NC(=O)[C@H](Cc1ccccc1)NC(=O)[C@H](CCCNC(N)=O)NC(=O)CNC(=O)[C@@H]1C[C@@H](O)CN1C(=O)[C@H](CC1CCCCC1)NC(=O)[C@H](Cc1ccc(O)cc1)NC(=O)CCCCCNC(=O)CN1CCN(CC(=O)O)CCN(CC(=O)O)CCN(CC(=O)O)CC1)C(=O)N1Cc2ccccc2C[C@H]1C(=O)N[C@@H](CO)C(=O)O [[^68Ga]Ga-DOTA-AHX-CG34, metal not drawn] ({DOTA-Ahx}-Y[Cha][Hyp]G[Cit]F[dA][Tic]S-OH) | approx. 96% | 1.7 | 3 | 5.1 | 4.9 | 1.2 | 0.4 | 1.2 | 1.1 | 6.5 | 6.6 | 2.4 | 2.4 | 4.2 | 2.8 | 0.7 | 6.3 | 2.7 | 2.6 | 0.8 | tissue uptake at 2 h (in vivo; athymic NMRI-Foxn1nu/Foxn1nu, A549 tumor uptake): 1.4 %ID/g; tissue uptake at 2 h (in vivo; [12]): 0.7 %ID/g; tissue uptake at 2 h (in vivo; [13]): 0.5 %ID/g; tissue uptake at 1 h (in vivo; [14]): 1 %ID/g; tissue uptake at 2 h (in vivo; [14]): 0.8 %ID/g; tissue uptake at 1 h (in vivo; [15]): 2.1 %ID/g; tissue uptake at 2 h (in vivo; [15]): 2 %ID/g; tissue uptake at 2 h (in vivo; [16]): 5 %ID/g; tissue uptake at 1 h (in vivo; [17]): 1.7 %ID/g; tissue uptake at 2 h (in vivo; [17]): 1.3 %ID/g; tissue to tissue ratio at 1 h (in vivo; [18]): 5.9; tissue to tissue ratio at 2 h (in vivo; [18]): 13.3; tissue to tissue ratio at 1 h (in vivo; [19]): 0.9; tissue to tissue ratio at 2 h (in vivo; [19]): 0.7; tissue to tissue ratio at 1 h (in vivo; [20]): 2.3; tissue to tissue ratio at 2 h (in vivo; [20]): 2.2; tissue to tissue ratio at 1 h (in vivo; [21]): 8.5; tissue to tissue ratio at 2 h (in vivo; [21]): 11.4; tissue to tissue ratio at 1 h (in vivo; [22]): 5.6; tissue to tissue ratio at 2 h (in vivo; [22]): 6.2
